# Measurements from publication doi:10.1101/2023.09.06.556503 (bioRxiv, 2023).
# B1: REGN10987 antibody (IgG1) (antibody, V domains shown)
# VH: QVQLVESGGGVVQPGRSLRLSCAASGFTFSNYAMYWVRQAPGKGLEWVAVISYDGSNKYYADSVKGRFTISRDNSKNTLYLQMNSLRTEDTAVYYCASGSDYGDYLLVYWGQGTLVTVSS
# VL: QSALTQPASVSGSPGQSITISCTGTSSDVGGYNYVSWYQQHPGKAPKLMIYDVSKRPSGVSNRFSGSKSGNTASLTISGLQSEDEADYYCNSLTSISTWVFGGGTKLTVL
# B2: EY-6A antibody (IgG1) (antibody, V domains shown)
# VH: EVQLVESGGGVVQPGRSLRLSCAASAFTFSSYDMHWVRQAPGKGLEWVAVISYDGSNKYYADSVKGRFTISRDNSKNTLYLQMNSLRAEDTAVYYCAKDGGKLWVYYFDYWGQGTLVTVSS
# VL: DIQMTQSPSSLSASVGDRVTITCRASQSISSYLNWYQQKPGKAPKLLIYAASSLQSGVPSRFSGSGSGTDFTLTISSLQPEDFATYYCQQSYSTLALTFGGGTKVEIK
# notes: copies: 2 + 2
# B3: FI-3A antibody (IgG1) (antibody, V domains shown)
# VH: EVQLLESGGGLIQPGGSLRLSCAASGFTVSSNYMSWVRQAPGKGLEWVSVIYSGGSTYYADSVKGRFTISRDNSKNTLYLQMNSLRAEDTAVYYCARDHVRPGMNIWGQGTMVTVSS
# VL: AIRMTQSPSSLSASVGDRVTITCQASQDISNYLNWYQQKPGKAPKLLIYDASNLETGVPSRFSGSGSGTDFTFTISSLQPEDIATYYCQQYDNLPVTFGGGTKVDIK
# notes: source: ExpiCHO, transfected, purified (MabSelect SuRe); copies: 2 + 2
# B4: IgG1 FD-11A antibody (antibody, V domains shown)
# VH: EVQLVESGGGVVQPGRSLRLSCAASGFTFSSYGMHWVRQAPGKGLEWVAVIWYDGSNKYYADSVKGRFTISRDNSKNTLYLQMNSLRAEDTAVYYCAKGPDILTGYYNYYYYGMDVWGQGTMVTVSS
# VL: QSVLTQPPSVSGAPGQRVTISCTGSSSNIGAGYDVHWYQQLPGTAPKLLIYGNSNRPSGVPDRFSGSKSGTSASLAITGLQAEDEADYYCQSYDSSLSGFYVVFGGGTKLTVL
# notes: also called FD-11A IgG; source: ExpiCHO, transfected, purified (MabSelect SuRe); copies: 2 + 2
# B5: FD-5D antibody (IgG1) (antibody, V domains shown)
# VH: EVQLVESGGGLVQPGGSLRLSCAASGFTFSSYSMNWVRQAPGKGLEWVSYISSSSSTIYYADSVKGRFTISRDNAKNSLYLQMNSLRAEDTAVYYCASPGGITAAGTSVLFGYYGMDVWGQGTTVTVSS
# VL: not shown
# notes: as for B3
# What was measured:
# [1] = target: Biotinylated SARS-CoV-2 (Wuhan) RBD, held on the SPR chip (SARS-CoV-2 (Wuhan), UniProt P0DTC2, biotin (EZ-Link Sulfo-NHS-LC-biotin); Lys15 within the N-terminal AviTag is named as the biotinylation site); assay: SPR; conditions: both partners purified
# [2] = target: SARS-CoV-2 (Wuhan) receptor-binding domain, soluble monovalent RBD (RBD-H) (SARS-CoV-2 (Wuhan), UniProt P0DTC2); assay: SPR; conditions: both partners purified
Binder,binding result [1],binding result [2],Kd [1]
B1,binds,–,–
B2,binds,binds,–
B3,binds,binds,–
B4,–,–,1230 nM
B5,binds,binds,–
